Consider twelve molecules from article PMC3138255 (The Journal of Biological Chemistry, 2011).

Data set [1] concerns the target Rnd1 GTPase as used in the quoted work (ref 39, Hota & Buck 2009) (UniProt Q92730). Description: Not stated in this article. Conditions: cited from earlier work.
For data set [2], the target named is Rnd1 GTPase, wild type, construct of this paper (UniProt Q92730). Put plainly: Isothermal titration calorimetry. Conditions: pH 7.0, 25 °C, 50 mM NaCl, 4 mM MgCl2, 50 mM phosphate buffer. (In general: ITC needs no label: the signal is the heat of the interaction.)
Sequence of Rnd1 GTPase, wild type, construct of this paper (Q92730 whole entry, the tested form may be a part): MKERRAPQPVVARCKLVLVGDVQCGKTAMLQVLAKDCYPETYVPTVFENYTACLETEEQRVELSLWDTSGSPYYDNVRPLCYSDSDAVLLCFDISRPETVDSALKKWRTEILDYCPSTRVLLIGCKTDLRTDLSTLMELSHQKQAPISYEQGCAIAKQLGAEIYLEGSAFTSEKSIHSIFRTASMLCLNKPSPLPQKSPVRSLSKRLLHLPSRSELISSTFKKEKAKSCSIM
The target of data set [3] is Rnd1 GTPase (residues 5-200), loaded with GMPPNP (UniProt Q92730). Description: ITC + SPR.
In data set [4] the target is Rnd2 GTPase (residues 1-227), loaded with GMPPNP (UniProt P52198). Put plainly: ITC + SPR.
For data set [5], the target named is T1, Rnd2 GTPase (residues 1-227), loaded with GMPPNP (UniProt P52198 1-227).
T1 sequence (looked up): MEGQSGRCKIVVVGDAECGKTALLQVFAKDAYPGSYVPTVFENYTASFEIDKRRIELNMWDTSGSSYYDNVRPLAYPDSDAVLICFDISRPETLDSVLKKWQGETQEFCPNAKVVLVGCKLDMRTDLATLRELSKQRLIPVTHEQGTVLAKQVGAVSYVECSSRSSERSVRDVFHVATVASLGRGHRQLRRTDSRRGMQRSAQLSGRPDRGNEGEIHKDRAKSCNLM
Put plainly: ITC.

The target of data set [6] is T2, Rnd1 GTPase (residues 5-200), loaded with GMPPNP (UniProt Q92730 5-200).
T2 sequence (looked up): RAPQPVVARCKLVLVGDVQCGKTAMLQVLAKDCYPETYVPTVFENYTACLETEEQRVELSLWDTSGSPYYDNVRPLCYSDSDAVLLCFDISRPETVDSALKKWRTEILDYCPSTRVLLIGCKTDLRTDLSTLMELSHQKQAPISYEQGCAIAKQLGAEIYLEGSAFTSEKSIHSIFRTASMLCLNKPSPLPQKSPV
Put plainly: ITC.

The data set “SEC” concerns the molecule itself. Put plainly: SEC. (SEC sorts molecules by how far they enter the pores of the column.)
The next data set concerns the target T3, Rnd1 GTPase Y114F (UniProt Q92730 5-200, Y114F).
T3 sequence (looked up): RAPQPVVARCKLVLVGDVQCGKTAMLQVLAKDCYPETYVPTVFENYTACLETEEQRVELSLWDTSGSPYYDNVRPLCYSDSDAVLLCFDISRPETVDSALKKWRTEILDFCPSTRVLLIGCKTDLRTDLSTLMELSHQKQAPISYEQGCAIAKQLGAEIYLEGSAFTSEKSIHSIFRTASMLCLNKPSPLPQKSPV
Description: ITC.

Sequence of Rnd1 GTPase as used in the quoted work (ref 39, Hota & Buck 2009) (Q92730 whole entry): as the sequence (Q92730 whole entry, the tested form may be a part) above

Take “Plexin-B1 RBD as used in the quoted work (ref 39, Hota & Buck 2009)”: the Kd (commonly the constant that tells how readily two partners part at equilibrium) in data set [1] (pH 6.4) is listed as “∼3.1 μM”; in data set [1] (pH 6.8), “∼5.5 μM”.

With “Plexin-B1 Rho GTPase binding domain (RBD), wild type, construct of this paper”, in data set [2], the Ka is 1.8 10^5 M^-1, the Kd amounted to 5.5 µM and the ΔG is -7.1 kcal/mol.

Consider “plexin-C1 Rho GTPase binding domain (RBD), residues 1198-1305 (from UniProt O60486 1198-1305) (domain or fragment)”, for which the Kd in data set [3] and in data set [4] was greater than 50 µM throughout.

B1: plexin-D1 RBD Y1618L (domain or fragment)
chain: AKPRNLNVSFQGCGMDSLSVRAMDTDTLTQVKEKILEAFCKNVPYSQWPRAEDVDLEWFASSTQSLILRDLDDTSVVEDGRKKLNTLAHYKIPEGASLAMSLIDKKDNTLGRVKDLDTEKYFHLVL
In data set [5], B1 registered a Ka of 70000 M⁻¹, a Kd of 14.2 µM and a dH of -1.6 kcal/mol. Besides, in data set [6], the Ka was 190000 M⁻¹, binding was put at a Kd of 5.2 µM and the dH is -3.1 kcal/mol.

B2: plexin-D1 Rho GTPase binding domain (RBD), residues 1553-1678 (domain or fragment, human, UniProt Q9Y4D7 1553-1678, looked up)
chain: AKPRNLNVSFQGCGMDSLSVRAMDTDTLTQVKEKILEAFCKNVPYSQWPRAEDVDLEWFASSTQSYILRDLDDTSVVEDGRKKLNTLAHYKIPEGASLAMSLIDKKDNTLGRVKDLDTEKYFHLVL
Take B2: in data set [5], the Ka worked out at 60000 M⁻¹, binding was put at a Kd of 16.6 µM and the dH was -0.4 kcal/mol.

B3: plexin-D1 RBD S1614V/T1615A (domain or fragment)
chain: AKPRNLNVSFQGCGMDSLSVRAMDTDTLTQVKEKILEAFCKNVPYSQWPRAEDVDLEWFASVAQSYILRDLDDTSVVEDGRKKLNTLAHYKIPEGASLAMSLIDKKDNTLGRVKDLDTEKYFHLVL
In data set [5], B3 yielded a Ka of 130000 M⁻¹, an equilibrium dissociation constant (Kd) of 7.7 µM and a dH of -1.4 kcal/mol. In data set [6], the Ka is 50000 M⁻¹, binding was characterised by a dissociation constant (Kd) of 20 µM and the dH amounted to 1.3 kcal/mol.

B4: plexin-A2 Rho GTPase binding domain (RBD), residues 1490-1600 (domain or fragment, human, UniProt O75051 1490-1600, looked up)
chain: LIRQQIEYKTLILNCVNPDNENSPEIPVKVLNCDTITQVKEKILDAVYKNVPYSQRPRAVDMDLEWRQGRIARVVLQDEDITTKIEGDWKRLNTLMHYQVSDRSVVALVPK
Regarding B4, in the data set “SEC”, the stoichiometry N (as a rule, the number of molecules, sites or subunits per partner or assembly) stood at 2. In data set [5], this molecule gave a Ka of 90000 M⁻¹, a Kd of 10.7 µM and a dH of -1.2 kcal/mol. In the data set with Rnd1 GTPase Y114F, the Ka worked out at 100000 M⁻¹, binding was put at a Kd of 10 µM and the dH was -4.1 kcal/mol. In data set [6], the Ka came to 140000 M⁻¹; the affinity, expressed as Kd, was 7 µM; the dH was -8 kcal/mol.

B5: plexin-C1 RBD K1267L (domain or fragment)
chain: TVALNVVFEKIPENESADVCRNISVNVLDCDTIGQAKEKIFQAFLSKNGSPYGLQLNEIGLELQMGTRQLELLDIDSSSVILEDGITKLNTIGHYEISNGSTIKVFKK
In data set [5], B5 returned a Ka of 90000 M⁻¹, a Kd of 11.1 µM and a dH of -0.6 kcal/mol. In data set [6], this molecule registered a Ka of 100000 M⁻¹, a Kd of 10 µM and a dH of -1.9 kcal/mol.

B6: plexin-C1 RBD T1264V/R1265V (domain or fragment)
chain: TVALNVVFEKIPENESADVCRNISVNVLDCDTIGQAKEKIFQAFLSKNGSPYGLQLNEIGLELQMGVVQKELLDIDSSSVILEDGITKLNTIGHYEISNGSTIKVFKK
With B6, in data set [5], the Ka worked out at 120000 M⁻¹, binding was characterised by a dissociation constant (Kd) of 8.3 µM and the dH is -1.5 kcal/mol. In data set [6], this molecule registered a Ka of 360000 M⁻¹, a Kd of 2.6 µM and a dH of -3.4 kcal/mol.

B7: plexin-B1 Rho GTPase binding domain (RBD), residues 1746-1852 (domain or fragment, human, UniProt O43157 1746-1852, looked up)
chain: YRPLTLNALLAVGPGAGEAQGVPVKVLDCDTISQAKEKMLDQLYKGVPLTQRPDPRTLDVEWRSGVAGHLILSDEDVTSEVQGLWRRLNTLQHYKVPDGATVALVPC
For B7, the Ka in data set [5] is 40000 M⁻¹; in the data set with Rnd1 GTPase Y114F, 180000 M⁻¹; in data set [6] it was 180000 M⁻¹. Besides, the Kd in data set [5] is greater than 20 µM; with Rnd1 GTPase Y114F, 5.5 µM; in data set [6] it was 5.5 µM. Also, the dH in data set [5] was -0.2 kcal/mol; with Rnd1 GTPase Y114F it was -2.5 kcal/mol; in data set [6] it was -6.7 kcal/mol.

B8: plexin-B1 RBD L1815K (domain or fragment)
chain: YRPLTLNALLAVGPGAGEAQGVPVKVLDCDTISQAKEKMLDQLYKGVPLTQRPDPRTLDVEWRSGVAGHKILSDEDVTSEVQGLWRRLNTLQHYKVPDGATVALVPC
In data set [5], B8 showed a Ka of 80000 M⁻¹, a Kd of 20 µM and a dH of -3.2 kcal/mol.

B9: plexin-B1 RBD L1815Y (domain or fragment)
chain: YRPLTLNALLAVGPGAGEAQGVPVKVLDCDTISQAKEKMLDQLYKGVPLTQRPDPRTLDVEWRSGVAGHYILSDEDVTSEVQGLWRRLNTLQHYKVPDGATVALVPC
For B9, in data set [5], the Ka was determined as 90000 M⁻¹, the dissociation constant (Kd) was found to be 9.8 µM and the dH was -1.6 kcal/mol. For the same molecule, in data set [6], the Ka turned out to be 70000 M⁻¹, binding was characterised by a dissociation constant (Kd) of 14.1 µM and the dH is -1.4 kcal/mol.
